Measured values from patent US20210054365A1.
Like-named read-outs stand apart in the source and are kept apart here.

T1: BclB (UniProt Q9HD36)
T1 sequence (looked up): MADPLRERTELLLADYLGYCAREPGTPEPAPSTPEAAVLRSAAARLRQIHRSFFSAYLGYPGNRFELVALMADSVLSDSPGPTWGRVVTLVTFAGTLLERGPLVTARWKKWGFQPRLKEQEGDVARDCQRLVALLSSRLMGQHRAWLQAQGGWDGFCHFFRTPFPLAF


Experiments:
[1] = molecular target: Sag1 (Saccharomyces cerevisiae) (UniProt P20840); assay: cell-based or functional assay
[2] = molecular target: Sag1 (Saccharomyces cerevisiae) (UniProt P20840); assay: cell-based or functional assay; remark: listed apart in the source
Mcl1 = Mcl1 (UniProt Q07820); assay: affinity as tabulated ('known affinities'); method not stated
BclB = molecular target: T1, BclB; assay: as above
Bfl1 = Bfl1 (UniProt Q16548); assay: as above
Bcl2 = Bcl2 (UniProt P10415); assay: as above
BclXL = BclXL (UniProt Q07817); assay: as above
BclW = BclW (UniProt Q92843); assay: as above
BclW, sequence (Q92843 1-182 limits assumed): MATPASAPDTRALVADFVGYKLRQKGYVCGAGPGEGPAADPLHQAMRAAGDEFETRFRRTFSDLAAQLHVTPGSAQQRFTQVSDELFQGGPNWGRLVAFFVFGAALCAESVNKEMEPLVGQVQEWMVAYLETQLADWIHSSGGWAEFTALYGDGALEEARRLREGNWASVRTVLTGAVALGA

Bcl2, sequence (P10415 1-207 limits assumed): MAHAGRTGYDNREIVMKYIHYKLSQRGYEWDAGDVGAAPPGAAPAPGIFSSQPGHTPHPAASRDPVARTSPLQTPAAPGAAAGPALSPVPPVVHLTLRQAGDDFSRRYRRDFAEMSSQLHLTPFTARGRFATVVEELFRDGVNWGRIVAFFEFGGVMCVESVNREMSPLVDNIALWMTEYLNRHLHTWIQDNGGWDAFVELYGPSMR
Bfl1, sequence (Q16548 1-153 limits assumed): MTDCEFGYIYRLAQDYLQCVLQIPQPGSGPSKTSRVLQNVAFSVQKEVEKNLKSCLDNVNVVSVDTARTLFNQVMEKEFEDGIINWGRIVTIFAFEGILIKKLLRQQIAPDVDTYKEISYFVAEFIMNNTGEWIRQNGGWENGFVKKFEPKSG
BclXL, sequence (Q07817 1-209 limits assumed): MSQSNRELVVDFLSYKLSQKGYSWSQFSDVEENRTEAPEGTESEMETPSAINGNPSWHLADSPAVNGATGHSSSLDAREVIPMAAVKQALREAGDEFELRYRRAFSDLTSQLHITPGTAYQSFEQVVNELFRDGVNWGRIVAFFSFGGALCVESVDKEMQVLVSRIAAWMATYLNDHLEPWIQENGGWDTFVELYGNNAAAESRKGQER
Mcl1, sequence (Q07820 whole entry): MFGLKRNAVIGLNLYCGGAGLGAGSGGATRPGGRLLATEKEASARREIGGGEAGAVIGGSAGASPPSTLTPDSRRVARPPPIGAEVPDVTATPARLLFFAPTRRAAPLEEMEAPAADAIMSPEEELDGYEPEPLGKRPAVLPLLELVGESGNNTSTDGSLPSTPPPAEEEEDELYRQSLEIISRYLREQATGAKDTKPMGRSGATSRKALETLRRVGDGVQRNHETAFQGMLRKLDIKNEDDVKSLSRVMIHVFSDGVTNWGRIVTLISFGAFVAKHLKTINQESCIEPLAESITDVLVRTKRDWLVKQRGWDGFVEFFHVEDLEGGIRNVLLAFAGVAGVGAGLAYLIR
Sag1 (Saccharomyces cerevisiae), sequence (P20840 20-627): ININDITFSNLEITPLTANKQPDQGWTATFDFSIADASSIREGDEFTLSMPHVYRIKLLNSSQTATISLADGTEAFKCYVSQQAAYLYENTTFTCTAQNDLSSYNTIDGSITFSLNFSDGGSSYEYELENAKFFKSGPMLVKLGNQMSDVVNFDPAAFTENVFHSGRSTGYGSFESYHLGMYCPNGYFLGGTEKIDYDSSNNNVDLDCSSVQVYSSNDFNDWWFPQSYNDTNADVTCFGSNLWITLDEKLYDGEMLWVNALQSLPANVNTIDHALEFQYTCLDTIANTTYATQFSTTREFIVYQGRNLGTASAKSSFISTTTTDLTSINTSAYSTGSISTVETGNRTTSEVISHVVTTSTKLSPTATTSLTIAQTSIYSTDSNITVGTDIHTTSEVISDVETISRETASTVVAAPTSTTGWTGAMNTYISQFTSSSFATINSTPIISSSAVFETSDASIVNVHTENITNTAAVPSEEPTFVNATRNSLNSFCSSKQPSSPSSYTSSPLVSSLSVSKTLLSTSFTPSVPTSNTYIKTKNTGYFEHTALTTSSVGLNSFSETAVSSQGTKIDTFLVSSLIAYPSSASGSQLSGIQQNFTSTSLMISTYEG

Row | Molecule | mating efficiency [1] [%] | mating efficiency [2] [%] | Kd (Mcl1) [nM] | Kd (BclB) [nM] | Kd (Bfl1) [nM] | Kd (Bcl2) [nM] | Kd (BclXL) [nM] | Kd (BclW) [nM]
1 | Aga2 (from UniProt P32781 19-87) | > 50 | 57.1 |  |  |  |  |  | 
2 | XINDI-XCDP07 (designed binder, from a related filing) ADPKKVLDKAKDRAENVVRKLKKELEELYKEARKLDLTQEMRDRIRLAAIAARIAAFGDIFHAIMEALEEARKLKKAGLVNSQQLDELKRRLEELDEEAAQRAEKLGKEFELKLEY |  |  | 17.4 | 107 | 7050 | 3.81 | 0.59 | 14.9
3 | BINDI-BCDP01 (designed binder, from a related filing) ADPKKVLDKAKDQAENRVRELKQELERLYKEARKLDLTQEMRRKLEWRYIAAMLKAIGDILNAIAQAENEADKLKKAGLVNSQQLDELRRRLEELAKEAARKAHDYGREFQLKLEY |  |  | 0.46 | 8.33 | 518 | 17.3 | 20.2 | 2010
